Experimental data taken from patent publication US12187807B2, “Antibody molecules to C5AR1 and uses thereof” (Visterra, Inc., priority 2020, dated 2025).
Where a chain is given by its changes, count along the chain named. “Also recorded” adds a separate entry of the source. Read-outs that look alike come from different tables or passages of the source. Blank lines part the entries; values can stand above or below the molecule they belong to.

Key:
[1] = molecular target: T1, biotinylated peptide representing the N-terminus of C5aR1 without tyrosine sulfation (Homo sapiens, UniProt P21730); test: Epitope mapping by biolayer interferometry, N-terminus without tyrosine sulfation; assay type: binding; set-up: key: “+” indicates binding to the listed peptide; “−” indicates lack of binding to the listed peptide; conditions: 10 μg/mL of antibody, biotinylated peptide on streptavidin biosensor
T1 construct: the N-terminus without tyrosine sulfation
T1 sequence (P21730 1-37 limits assumed): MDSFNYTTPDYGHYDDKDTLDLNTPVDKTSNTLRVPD
Procedure: The epitope mapping was undertaken, using biolayer interferometry, on a series of exemplary anti-C5aR1 antibodies generated as described in Example 1. Briefly, for each antibody, biotinylated peptides representing ECL2, the N-terminus with tyrosine sulfation, and the N-terminus without tyrosine sulfation, were immobilized in a streptavidin biosensor. Subsequently, the biosensor was exposed to 10 μg/mL of antibody to detect antibody binding to the immobilized peptide. The results of the epitope mapping study are shown in Table 4 (“+” indicates binding to the listed peptide; “−” indicates lack of binding to the listed peptide).

[2] = molecular target: T2, C5aR1 mutants (N-terminus, ECL1, ECL2, ECL3) (Homo sapiens, UniProt P21730, K279N/Y11F); test: Alanine scanning / mutagenesis epitope mapping of C5aR1; assay type: binding; conditions: Y11F
T2 sequence (P21730 with tags, fused parts or gaps Y11F/K279N): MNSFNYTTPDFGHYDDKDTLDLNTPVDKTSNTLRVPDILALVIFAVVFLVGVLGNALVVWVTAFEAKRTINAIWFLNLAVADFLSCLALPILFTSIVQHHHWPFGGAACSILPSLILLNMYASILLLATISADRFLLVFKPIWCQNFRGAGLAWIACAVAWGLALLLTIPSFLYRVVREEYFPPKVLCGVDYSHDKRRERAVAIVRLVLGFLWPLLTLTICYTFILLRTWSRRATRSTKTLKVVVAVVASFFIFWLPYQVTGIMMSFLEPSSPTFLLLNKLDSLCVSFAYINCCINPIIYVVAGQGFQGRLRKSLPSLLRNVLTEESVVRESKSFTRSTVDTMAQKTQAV
Description: FIG. 5A is a diagram showing the results of alanine scanning mutations of site I interaction with mab 583. The N-terminal amino acid sequence of C5aR1 is listed across the top of the figure. Glycosylation sites are indicated by rectangle boxes. The only natural glycosylation site is at position N5. The other sites were introduced by mutagenesis. Mutations that abolished clone 583 binding are circled. The sulfated tyrosines at positions 11 and 14 are marked with a star sign. FIG. 5B is a diagram showing results of alanine scanning mutations of site I interaction with mab 66. Mutations that abolished clone 66 binding are circled. The sulfated tyrosines at positions 11 and 14 are marked with a star sign.
Ala substitutions of T8 & D10 moderately reduces its affinity while Y11 & D15 abolishes mAb binding. […] N-glycosylation of at N17 or D17P also abolishes mAb binding. N5 glycan is tolerated but a tandem glycosylation (N5 & N17) is not tolerated. mAb core epitopes are T8-G12 but nature of AA present in D15-D18 influence its binding. […] The core epitope appears to be located near T8-G12, with additional contributions from D15-D18.
Clone 66 was previously characterized as a site I binder and its binding is dependent on tyrosine sulfation at positions 11Y and/or 14Y. […] It should be noted that the only the only non-human species to retain clone 66 binding was baboon, which is the only NHP that retains the DYGHY motif.
However, it was unknown if additional contacts were made with ECL1 or ECL3. […] The data is highlighted in FIG. 5C-5E.
The core epitope of clone 11 is from E180-P183; the core epitope of clone 329 is from E180-P184; and the core epitope of clone 336 is from R178-P183. […] The data for clones 11, 329, and 336 is highlighted in FIG. 5F.

C5aR1 (C5aR1-U937 cells) = molecular target: T3, C5aR1 (C5aR1-U937 cells) (Homo sapiens, UniProt P21730, K279N); test: C5a induced calcium flux (Fluo-4), C5aR1-U937 cells; assay type: cell-based
T3 construct: expressed in transfected cells
T3 sequence (P21730 with tags, fused parts or gaps K279N limits assumed): T2 sequence (P21730 with tags, fused parts or gaps Y11F/K279N) with F11Y
Description: (§1) Intracellular calcium is released into the cytoplasm by stimulation of GPCRs and acts as a second messenger of GPCR signaling, commonly used to quantify GPCR agonism and antagonism. As such, calcium flux assays using calcium sensitive dye were utilized to detect cytosolic changes in calcium concentration. […] The dye penetrated the cell membrane and became active once inside the cell. The active form of the dye became fluorescent after binding to intracellular calcium and the fluorescence was used to determine C5aR1 signaling in response to C5a addition. Specifically, stable C5aR1-U937 cells or neutrophils isolated from whole blood were stained with Fluo-4 Direct Calcium Assay kit from Thermo Fisher for 1 hour at 37° C. Next, antibody or antagonist was incubated with the cells for 30 minutes. The basal fluorescence with an excitation at 494 nm and emission at 516 nm was measured for 15 seconds. C5a was added to the cells and the fluorescence was measured over a span of four minutes. The basal read from before C5a stimulation and the max signal after C5a stimulation were used to calculate the response ratio. The potency of the antibodies was assessed for their ability to inhibit intracellular calcium release in C5aR1 expressing cells in the presence of C5a. Similar to the chemotaxis assay, the calcium flux assays were performed using engineered cells stably expressing C5aR1 as well as using human neutrophils.

[3] = molecular target: T4, C5aR1 (human neutrophils) (Homo sapiens, UniProt P21730); test: C5a induced calcium flux (Fluo-4), human neutrophils; assay type: cell-based
T4 construct: neutrophils isolated from whole blood; host or cells: human neutrophils (cryopreserved, or isolated from whole blood)
T4 sequence (P21730 1-350): T2 sequence (P21730 with tags, fused parts or gaps Y11F/K279N) with N2D, F11Y, N279K
Description: as §1

- Binding to Non-sulfated N-terminal peptide [1]: −
B1: clone 66: anti-C5aR1 Site I antibody; VH SEQ ID NO: 483, VL SEQ ID NO: 543 (antibody, V domains shown)
VH: QVQLQQSDAELVKPGASVKISCKASGYTFIDHAIHWVKQRPEQGLEWIGYISPGNGEIKYNEKFKAKATLTADKSSSAAYMQLNSLTSADSAVYFCKRALFYYTGKYQPMDYWGQGTTVTDSS
VL: DIVMTQSQKFMSTTAGDRVSITCKASQNVGSAVVWYQQKPGRSPKLLIYSSSIRYTGVPDRFTGSGSGTDFTLTINSVQSEDLADYFCQQYNSFPLTFGAGTKLEIK
- binding to C5aR1 mutant [2]: did not impact binding
- inhibition of C5a induced intracellular calcium flux (C5aR1 (C5aR1-U937 cells)): inhibited calcium flux as single agents in a dose-dependent manner

- Binding to Non-sulfated N-terminal peptide [1]: −
B2: clone 329: anti-C5aR1 Site II antibody; VH SEQ ID NO: 492, VL SEQ ID NO: 552 (antibody, V domains shown)
VH: QVQLQQSGAELTKPGASVKLSCKASGYTFTNYWMHWVKQRPGQGLEWIGYLNPSSGYTKYNQKFKDKATLTADKSSSTAYMQLNSLTYEDSAVYYCTRSGGDNYGNPYYFDRWGQGTTVTVSS
VL: DVVMTQTPLSLTVSLGDQASISCRSSQSLVHSNGNTYLHWYLQKPGQSPKFLIYKVSNRFSGVPDRFSGSGSGTDFRLKISRVEAEDLGVYFCSQSTLVPLTFGAGTKLEIK
- inhibition of C5a induced calcium efflux [3]: inhibition of the C5a induced calcium efflux
- inhibition of C5a induced intracellular calcium flux (C5aR1 (C5aR1-U937 cells); listed as 329): inhibition of the C5a induced calcium efflux; also recorded: inhibited by antibody 329 in a dose-dependent manner; also recorded: inhibited calcium flux as single agents in a dose-dependent manner

- Binding to Non-sulfated N-terminal peptide [1]: +
B3: clone 583: anti-C5aR1 Site I antibody; VH SEQ ID NO: 536, VL SEQ ID NO: 595 (antibody, V domains shown)
VH: EVQLVESGGGLVKPGGSLKLSCAASGFTFNAYAMSWVRQTPEKRLEWVASISTGGNTYCPDSVKDRFTVSRDNVRNILYLQMSSLRSEDTAMYYCTRGYQRFSGFAYWGQGTLVTVS
VL: DVVMTQTPLSPPVSLGYQASISCRSSQSLVHSNGNTYLNWYLQKPGQSPKLLIYKVSNRLSGVPDRFSGSGSGTDFTLKISRVETEDLGVYFCSQSTHVPYTFGGGTKLEIK
- inhibition of C5a induced calcium efflux [3]: inhibition of the C5a induced calcium efflux
- binding to C5aR1 mutant [2]: does not abolish binding
- inhibition of C5a induced intracellular calcium flux (C5aR1 (C5aR1-U937 cells)): inhibition of the C5a induced calcium efflux
